JP2007302676A (dated 2007)

B1: hu504.32 (Fab) (Fab, V domains shown)
VH: EVQLVESGGGLVQPGGSLRLSCAASGFFITNNYWGWVRQAPGKGLEWVGYISYSGSTSYNPSLKSRFTISRDTSKNTFYLQMNSLRAEDTAVYYCAMTGSSGYFDFWGQGTLVTVSS
VL: DIQMTQSPSSLSASVGDRVTITCRASESVDDLLHWYQQKPGKAPKLLIKYASQSISGVPSRFSGSGSGTDFTLTISSLQPEDFATYYCQQGNSLPNTFGQGTKVEIKR
B2: Fib504Kグラフト (HVR graft with light chain Y49K, Fab displayed on phage) (Fab, V domains shown)
VH: EVQLVESGGGLVQPGGSLRLSCAASGFFITNNYWGWVRQAPGKGLEWVGYISYSGSTSYNPSLKSRFTISADTSKNTAYLQMNSLRAEDTAVYYCAMTGSSGYFDFWGQGTLVTVSS
VL: DIQMTQSPSSLSASVGDRVTITCRASESVDTYLHWYQQKPGKAPKLLIKYASQSISGVPSRFSGSGSGTDFTLTISSLQPEDFATYYCQQGNSLPNTFGQGTKVEIKR
notes: also called hu504Kグラフト; ヒト化504Kグラフト
B3: Fib504グラフト (direct HVR graft, Fab displayed on phage) (Fab, V domains shown)
VH: EVQLVESGGGLVQPGGSLRLSCAASGFFITNNYWGWVRQAPGKGLEWVGYISYSGSTSYNPSLKSRFTISADTSKNTAYLQMNSLRAEDTAVYYCAMTGSSGYFDFWGQGTLVTVSS
VL: DIQMTQSPSSLSASVGDRVTITCRASESVDTYLHWYQQKPGKAPKLLIYYASQSISGVPSRFSGSGSGTDFTLTISSLQPEDFATYYCQQGNSLPNTFGQGTKVEIKR
notes: Tested as monovalent Fab-g3 on phage (VH-CH1 fused to truncated P3); also called hu504グラフト; ヒト化抗体504グラフト

Experiments:
[1] = molecular target: 全長ヒトインテグリンアルファ4ベータ7 (expressed in 293 cells, purified by Fib504 affinity chromatography) (human) (UniProt P13612); assay: Biacore SPR, Fab immobilised on CM5, alpha4beta7 injected (summary of Table 3)
[2] = molecular target: T1, 全長ヒトインテグリンアルファ4ベータ7 (expressed in 293 cells, purified by Fib504 affinity chromatography) (human, UniProt P13612 34-1032; P26010 20-798); assay: phage-displayed Fab on immobilised human alpha4beta7
T1 construct: mature; also called 固定化アルファ4ベータ7; α4β7

Binder | fold tighter binding relative to the starting rat antibody [1] | binding result [2]
B1 | 3 fold | 
B2 |  | no binding
B3 |  | no binding
